Laboratory results reported in the supplement of paper PMC12042874.
± gives the uncertainty stated by the source.

Experiment: amyloid nucleation score (Sup35N fusion, yeast selection) (log enrichment); library NNK3; higher = more nucleation; inactive = no reads after selection
Method in brief: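 Nucleation score is defined as the DiMSum log enrichment of output over input reads, with centring on the mode score of non-aggregating sequences. A minimum of 100 input reads was required for each sequence. Reads came from Illumina sequencing of plasmid inserts from psi-negative yeast expressing Sup35N fused to peptides of 20 random codons, induced with 100 μM copper sulfate for 24 hours and grown 7 days at 30°C on medium lacking adenine and uracil.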

Substance	amyloid nucleation score
HFRDAVGWGFINGCHPAGSG	inactive
YCTRGNSTNLEYELECLVIF	inactive
SFLTKSQKTNCGSLKEMCVG	inactive
NSFSRINKDIISSNSVG	inactive
HVVKSRSGLIMVWRPLL	-0.65 ± 1.1
NLWYLVMLISDFCEPRKEWY	inactive
IRTSGSMYIISIWRWVGRTL	inactive
MNKNIRGYDLFKMRMMDWCM	inactive
CCRFAVLRRLERSDQKGVWI	inactive
ATPFGWDHN	inactive
STPHAHIRSLFMSGYGILTN	inactive
CLRDCKTPDSATHTRAINGL	inactive
LFQKKFILQVYNCLFSYYFN	1.18 ± 0.096
QNFPSTSHFNIYC	1.72 ± 0.094
SHRVNWFLCSCLESYFMCNT	-0.522 ± 0.78
GIYRLGVNHGMFSCLM	inactive
FLLVLWSVFLTGT	inactive
PSVFVRVLEKNRDLMMRTAS	inactive
FRLLLSKMAYFRADMTYDDF	inactive
SSAYHSHDSSRTKRNRSGRM	inactive
SSFTKLPFL	inactive
HWTLKMTVQHVFMLGASCRY	inactive
FSGGCSVYSMQLFLS	1.43 ± 0.11

Substance	amyloid nucleation score
YVFVCIRPPLVGVHEFNSRS	-0.089 ± 0.56
CDGNMVGSTAIPVSFFPFGR	inactive
HCSCDGAIRYDILQSNHKE	inactive
SFCFFRVTLSCTC	inactive
NWRPV	inactive
EFFCWIDSSIGSRYFSMTED	inactive
YPLYASTS	1.07 ± 0.16
NQLYSWWRFYGLNS	inactive
RGFFMVWLMNCLMRFRISDF	inactive
TAKTRC	-0.272 ± 0.96
IMNCVLMKDIWYSVFNHR	2.44 ± 0.067
SPQGTVCNQSIFVALPLRVG	inactive
QFLIVGFAYLPSLA	inactive
DRVSANLTFLSS	inactive
AVYCPINLLAF	inactive
DYRVNCFTCLYVVEVSHSHD	1.84 ± 0.061
CTFFGKLLSCFVYSGMVQ	inactive
TRYCVVNW	-0.511 ± 0.56
TVLCRYVAYLVVSANYLDEC	inactive
GIKNMRSISKFGWVFLIYTV	inactive
YSTPTDMLDLQFDKSASRGV	inactive
KLSSFSSLQIYTWYMILG	inactive
SCSIVDWSLMIVTYLCWLTN	inactive

Substance	amyloid nucleation score
GEWSNLSNCTVNNVSRSGCS	inactive
NVRVFFVSYVL	0.885 ± 0.11
TFVVSVMHKCAW	1.18 ± 0.11
QRFFRCIRSRSWTFTSGVIV	inactive
WFSPRDVNYSREVFKANTLT	inactive
VRSTYGNKGFVSQRGLQFSP	inactive
NDCLFNKILAVRSFTLLAGK	inactive
PTIHGVMGVEPMSYSLL	inactive
ICSII	inactive
LSGLESVRSSYDWVVGGWIS	-0.329 ± 1.3
VDNWFVFFYGYSGLLYGSHY	inactive
DITRGCGVKDRKVVPASGLA	inactive
NYVGSSPGVGSRYTCLKSNV	inactive
AFLACLRLKDLDVVFRSPNR	inactive
VNEIRDILLVSYSKFRAWGQ	1.2 ± 0.13
SIFSSCLSPYSFSYIKLLSC	0.504 ± 0.26
LTLLHRKRMVLRYCNFMLYL	inactive
SYRASSGCHWREPHGLSDVR	0.897 ± 0.21
LAAIDERPS	inactive
GENIEYMF	0.025 ± 0.31
MHNKVGPYTD	inactive
KFGSLWRSNESDSSNSALRY	inactive
TENISVCGYYYRMIALDMFW	inactive

Substance	amyloid nucleation score
MVYPQLYTTKVVNVVPGLGS	inactive
KRLSCNFRSRSKSSGWPTLV	inactive
REGSDHRFMICETFYFE	inactive
FCFKSLALELPIQKY	inactive
NSTYSSF	inactive
LSSFIFCFSLYAVLTMGVVH	inactive
KQLLGGPTVSFNVVYSVALK	1.98 ± 0.088
PHGNVLVLYDKRVLSCVEWN	0.428 ± 0.46
HLNYYGAL	inactive
VIKSIWQSYGRKRSYLDMSI	inactive
RVLYSFQCAFLMDKETSSGR	inactive
CRDSWFWSV	inactive
NVWLNGWIVGMGYNNWHILW	1.93 ± 0.072
SLVSFFCHVGNKWFNHDFPI	inactive
HYLQS	inactive
VLEYHTQPWGLAQRQTWLSG	inactive
HAVPVYD	-0.394 ± 1.9
LPHNIVLAKKTLKV	inactive
NDNSSATRSHSGLATRGGLV	inactive
YLNPAFELFKRMSNRFFVLA	-1.02 ± 1.9
WALWICC	0.83 ± 0.13
VRSKLYGPDVYPTHLGTAVM	inactive
ARLSLWS	0.733 ± 0.31

Substance	amyloid nucleation score
VDNHACPWTGGLHFRKLWNG	inactive
NLLPRCKLIDSWWSSHRLWV	-0.809 ± 1.1
ECLRLDCGTSRLYYYHLITM	0.814 ± 0.24
WSGHIGVLRTTSSQQWRVRR	inactive
LGKRVGCNCICAPRSAGDGI	inactive
ISLVAAKLRTCF	inactive
RKILVVFLSWFNFKVYSNSM	inactive
VEHDNKGISQAAVMFG	inactive
YSKCNRIFFTEDLF	-0.295 ± 0.8
IYAPRR	inactive
LPDEEHVRYVCYLYDM	inactive
YFINMRKYCTCPDMCEVLRI	0.574 ± 0.18
TSFGMSTPCQAFARSVDDRG	inactive
GIFCYQWWRTNPNESLAR	inactive
PSTSVPTDMMRFSIYSLLRS	inactive
QAKGIRYVGGLTWYNH	inactive
FWFYATLMGEQDK	-0.331 ± 0.9
YYIHCVWYNADKVYEG	2.37 ± 0.059
CFRPPFTFRYFALARGKAAD	inactive
TVRGEVVGPSDNREKIQKQW	inactive
CLTYHSCIFRVHLFTISINV	inactive
ELVYDLDRYDGGLGVKNEEW	inactive
GLYMKVKFGYTEWQDFGQSS	-0.237 ± 0.69

Substance	amyloid nucleation score
GKKDRVRQTYFYMNSYIHW	1.65 ± 0.085
YLYVRYTFRYWVVNYRYNNG	inactive
TNLWFKNLSMFMGIVSLART	inactive
LFTWKCDLGSRRAKGSGLGS	1.42 ± 0.13
EHPLMSSSVSSTNMFNYAQI	inactive
SPDTARTH	inactive
LFCFSVN	inactive
CPLVFDMILVSLCSNGAGLI	inactive
MFQGHMSWII	inactive
VRLYYSKPRLKRGDSCVEKY	inactive
IYVVLQTWHNYAMLTITGLV	0.228 ± 0.67
AGYNYASKSNTLESQTACCS	inactive
GSLKPMFDRSCFFNIKAIML	inactive
YCKFDS	0.705 ± 0.12
VLLSNNRILYETFL	inactive
VGSLVHLGLGWIRTLLLYGV	inactive
ENIVCLAGKQHNHEMG	inactive
RYAHRSKRNTSWHVYMFKVV	inactive
SFSVTMPMPIYTTLNGPLTN	inactive
NIVISYPP	0.749 ± 0.11
DQAIVLVNFVSASSVPPKIF	0.498 ± 0.25
SWCCR	1.4 ± 0.1
SYTPHY	inactive

Substance	amyloid nucleation score
LLFAYLMRMRISVHIWVRGT	inactive
WRGKKSWAWPDQCLI	inactive
LVTIYW	inactive
LTKYVVFSIY	1.16 ± 0.094
NFTGSCVPVIRQMASCFSSF	inactive
TVGVTYIKVWNVPNILYRGC	0.769 ± 0.15
WYVFMCNGSWFLRNCRNLSY	0.144 ± 0.78
RPVSTSYVRLRRVRFSYNLN	inactive
RCTVNRRQSRSAHGMGPSSS	inactive
VRQWSTFASLMYATENGVNN	inactive
KDNTYVIFFYYLFVFVRTFL	inactive
KAFFESMFWV	inactive
RSVVVLT	inactive
SYMLTFK	inactive
NWDMAFNYNLTAFSPKGTNS	inactive
WVDWFESSQTFFCALYE	inactive
RYNGTGIKYWKTY	inactive
SDMCMVLFLLTVYFVMSGRC	0.133 ± 0.67
SHGHYCIVFVFTRL	inactive
SKSQSSHHDSYSLWTM	inactive
FQFNILNSVSGLCICYDSGH	3.41 ± 0.081
VLISVLSRLRCMSGGLYTPN	inactive
